# Data as given in publication PMC2752815.
# Target: mouse βB1-crystallin (mouse) (UniProt Q9WVJ5)
# Experiment: AUC
substance,measurement,value
mouse βB1-crystallin (from UniProt Q9WVJ5 1-250) (natural protein),Kd,1550 nM
same,stoichiometry N,2
